# Experimental data published in patent publication US20230340142A1 (SUZHOU NEOLOGICS BIOSCIENCE, published 2023).
# Substitutions are numbered along the chain they refer to.
# B1: Clone C (antibody, V domains shown)
# VH: EVQLQQSGADLVKPGASVKLSCTASGFNIKDTYMHWVKQRPEQGLEWIGRIDPANGNTKYDPKFQGKATITTDTSSNTAYLQLSSLTSEDTAVYYCARGLGRWFAYWGQGTLVTVSA
# VL: DIVMTQSHKFMSTSVGDRVSITCKASQDVSNAVAWYQQKPGQSPELLIYSASNRYTGVPDRFTGSGSGTDFTFTISSVQAEDLAVYYCQQHDSTPLTFGAGTKLELK
# notes: Mouse hybridoma clone
# B2: Clone D (antibody, V domains shown)
# VH: EVQLQQSGPELVKPGASMKISCKASGYSFTGYTMNWVKQSHGKNLEWIGLIIPYNGGISYNQKFKDKATLTVDKSSSTAYMELLSLTSEDSAVYYCASLITTAPRDSMDYWGQGTSVTVSS
# VL: DIQMTQTTSSLSASLGDRVTISCRASQDISNYLNWYQQKPDGSVKLLIYYTSKLHSGVPSRFSGSGSGTDYSLTISNLEQEDIATYFCQQGDALPWTFGGGTKLEIK
# notes: Mouse hybridoma clone
# B3: Clone N (antibody, V domains shown)
# VH: B2 VH with Y54H, I58T, S77R, I100M
# VL: B2 VL with S43T, K53R, E79D, D92A, A93T
# notes: Mouse hybridoma clone
# B4: Clone B (antibody, V domains shown)
# VH: QGQMQQSGAELVKPGASVKLSCKTSGFTFSSSYISWLKQKPGQSLEWIAWIYAGTGGTSYNQKFTGKAQLTVDTPSSTAYMQFSSLTTEDSAIYYCARHEGKYWYFDVWGAGTTVTVSS
# VL: QILLTQSPAIMSASPGEKVTMTCSASSSVSYVHWYQQKPGSSPKPWIYDTSNLASGFPARFSGSGSGTSYSLIISSMEAEDAATYYCHQRSSYPWTFGGGTKLEIK
# notes: Mouse hybridoma clone
# B5: BhVH2/BhVL1 (antibody, V domains shown)
# VH: QGQLVQSGAEVKKPGASVKVSCKTSGFTFSSSYISWVRQAPGQGLEWMGWIYAGTGGTSYNQKFTGRVTMTVDTSTSTAYMELRSLRSDDTAVYYCARHEGKYWYFDVWGQGTTVTVSS
# VL: DIQMTQSPSSLSASVGDRVTITCSASSSVSYVHWYQQKPGKAPKPWIYDTSNLASGFPSRFSGSGSGTDYTLTISSLQPEDFATYYCHQRSSYPWTFGGGTKVEIK
# notes: Humanized Clone B; VH and VL cloned into vectors carrying constant regions (CH1-FC/CL), expressed in 293F cells; also called humanized Clone B, Bh VH2 + Bh VL1
# B6: BhVH2/BhVL8 (antibody, V domains shown)
# VH: B5 VH
# VL: EIVMTQSPATLSVSPGERATLSCSASSSVSYVHWYQQKPGQAPRPWIYDTSNLASGFPARFSGSGSGTEYTLTISSLQSEDAAVYYCHQRSSYPWTFGGGTKVEIK
# notes: Humanized Clone B; constant regions (CH1-FC/CL) from the vector, expressed in 293F cells; also called humanized Clone B, Bh VH2 + Bh VL8
# B7: BhVH2/BhVL7 (antibody, V domains shown)
# VH: B5 VH
# VL: B6 VL with P45L, W46L, F57I, Y70F, A82F
# notes: Humanized Clone B; constant regions (CH1-FC/CL) from the vector, expressed in 293F cells; also called humanized Clone B, Bh VH2 + Bh VL7
# B8: BhVH3/BhVL3 (antibody, V domains shown)
# VH: B5 VH with G2V
# VL: B5 VL with S10T, P45L, W46L, F57V, D69E, Y70F, E80D
# notes: Humanized Clone B; constant regions (CH1-FC/CL) from the vector, expressed in 293F cells; also called humanized Clone B, Bh VH3 + Bh VL3
# B9: BhVH5/BhVL7 (antibody, V domains shown)
# VH: B5 VH with A16S, M70I, R84S, D89E
# VL: B6 VL with P45L, W46L, F57I, Y70F, A82F
# notes: Humanized Clone B; constant regions (CH1-FC/CL) from the vector, expressed in 293F cells; also called humanized Clone B, Bh VH5 + Bh VL7
# B10: BhVH5/BhVL8 (antibody, V domains shown)
# VH: B5 VH with A16S, M70I, R84S, D89E
# VL: B6 VL
# notes: Humanized Clone B; constant regions (CH1-FC/CL) from the vector, expressed in 293F cells; also called humanized Clone B, Bh VH5 + Bh VL8
# B11: ChVH3/ChVL3 (antibody, V domains shown)
# VH: QVQLVQSGAEVKKPGASVKVSCKASGFNIKDTYMHWVRQAPGQGLEWIGRIDPANGNTKYDPKFQGRVTITTDTSANTAYMELSSLRSEDTAVYYCARGLGRWFAYWGQGTTVTVSS
# VL: DIQMTQSPSSLSASVGDRVTITCQASQDVSNAVAWYQQKPGKAPKLLIYSASNLYTGVPSRFSGSGSGTDFTFTISSLQPEDIATYYCQQHDSTPLTFGQGTKLELK
# notes: Humanized Clone C; constant regions (CH1-FC/CL) from the vector, expressed in 293F cells; also called humanized Clone C, Ch VH3 + Ch VL3
# B12: ChVH2/ChVL2 (antibody, V domains shown)
# VH: B11 VH with V68A, A76T, M81L
# VL: B11 VL with Q24K, L54R
# notes: Humanized Clone C; constant regions (CH1-FC/CL) from the vector, expressed in 293F cells; also called humanized Clone C, Ch VH2 + Ch VL2
# B13: ChVH4/ChVL3 (antibody, V domains shown)
# VH: B11 VH with N77S, M81L
# VL: B11 VL
# notes: Humanized Clone C; constant regions (CH1-FC/CL) from the vector, expressed in 293F cells; also called humanized Clone C, Ch VH4 + Ch VL3
# B14: ChVH3/ChVL1 (antibody, V domains shown)
# VH: B11 VH
# VL: B11 VL with Q24K, L54R, S60D
# notes: Humanized Clone C; constant regions (CH1-FC/CL) from the vector, expressed in 293F cells; also called humanized Clone C, Ch VH3 + Ch VL1
# B15: ChVH2/ChVL3 (antibody, V domains shown)
# VH: B11 VH with V68A, A76T, M81L
# VL: B11 VL
# notes: Humanized Clone C; constant regions (CH1-FC/CL) from the vector, expressed in 293F cells; also called humanized Clone C, Ch VH2 + Ch VL3
# B16: ChVH5/ChVL1 (antibody, V domains shown)
# VH: B11 VH with G44R, D61S, P62Q, T72R, N77S
# VL: B11 VL with Q24K, L54R, S60D
# notes: Humanized Clone C; constant regions (CH1-FC/CL) from the vector, expressed in 293F cells; also called humanized Clone C, Ch VH5 + Ch VL1
# B17: ChVH1/ChVL1 (antibody, V domains shown)
# VH: B11 VH with V20L, K23T, R38K, A40R, R67K, V68A, A76T, M81L
# VL: B11 VL with Q24K, L54R, S60D
# notes: Humanized Clone C; constant regions (CH1-FC/CL) from the vector, expressed in 293F cells; also called humanized Clone C, Ch VH1 + Ch VL1
# B18: Chimeric D (antibody, V domains shown)
# VH: B2 VH
# VL: B2 VL
# notes: also called chimeric Clone D
# B19: DhVH2/DhVL2 (antibody, V domains shown)
# VH: QVQLVQSGAEVKKPGASVKVSCKASGYSFTGYTMNWVKQAHGQGLEWMGLIIPYNGGISYNQKFKDRVTMTVDTSISTAYMELSRLRSDDTAVYYCASLITTAPRDSMDYWGQGTLVTVSS
# VL: DIQMTQSPSSLSASVGDRVTITCRASQDISNYLNWYQQKPGKAPKLLIYYTSKLHSGVPSRFSGSGSGTDFTLTISSLQPEDIATYYCQQGDALPWTFGGGTKVEIK
# notes: Humanized Clone D; constant regions from the vector, 293F cells; also called humanized Clone D, Dh VH2 + Dh VL2
# B20: DhVH1/DhVL2 (antibody, V domains shown)
# VH: B19 VH with A40S, M48I, V68A, M70L, I76S
# VL: B19 VL
# notes: Humanized Clone D; constant regions from the vector, 293F cells; also called humanized Clone D, Dh VH1 + Dh VL2
# B21: DhVH-CDR graft/ DhVL-CDR graft (antibody, V domains shown)
# VH: B19 VH with K38R, H41P, V72R, A79V
# VL: B19 VL with L73F
# notes: also called CDR-grafted humanized Clone D
# B22: DhVH2/DhVL1 (antibody, V domains shown)
# VH: B19 VH
# VL: B19 VL with P8T, K42G, F71Y, P80Q
# notes: Humanized Clone D; constant regions from the vector, 293F cells; also called humanized Clone D, Dh VH2 + Dh VL1
# B23: DhVH3/DhVL2 (antibody, V domains shown)
# VH: B19 VH with K38R, H41P
# VL: B19 VL
# notes: Humanized Clone D; constant regions from the vector, 293F cells; also called humanized Clone D, Dh VH3 + Dh VL2
# B24: DhVH1/DhVL1 (antibody, V domains shown)
# VH: B19 VH with A40S, M48I, V68A, M70L, I76S
# VL: B19 VL with P8T, K42G, F71Y, P80Q
# notes: Humanized Clone D; constant regions (CH1-FC/CL) from the vector, 293F cells; also called humanized Clone D, Dh VH1 + Dh VL1
# B25: DhVH3/DhVL1 (antibody, V domains shown)
# VH: B19 VH with K38R, H41P
# VL: B19 VL with P8T, K42G, F71Y, P80Q
# notes: Humanized Clone D; constant regions from the vector, 293F cells; also called humanized Clone D, Dh VH3 + Dh VL1
# Biological target: T1, human PD-L1 recombinant protein, PD-L1-his (human, UniProt Q9NZQ7 19-238)
# T1 construct: also called PD-L1 with a his-tag; not shown: his-tag
# Experiment: Gator BLI; antibody on HFC sensor, PD-L1-his in solution; 1:1 fit
# Description: PD-L1 antibodies were coupled to the surface of the HFC sensor (Probe Life), and human PD-L1 recombinant protein as the mobile phase was 2 times gradient diluted. The association and dissociation between PD-L1 protein and the antibodies on the surface of the sensor were measured. Specifically, the HFC sensor was prewetted in SD buffer (PBS containing 0.02% Tween-20 and 0.2% BSA) for 5-10 minutes, and then incubated in SD buffer containing antibodies for 1-3 minutes, allowing antibodies to be coupled to the sensor surface. The antibody-coupled HFC sensor was incubated in the SD buffer solution for 1 minute, and then incubated in the buffer solution containing different concentrations of PD-L1-his for 1-5 minutes to measure the association of PD-L1 protein to captured antibody. Finally, the sensor combining the antigen and antibody was incubated in SD buffer for 2-10 minutes to measure PD-L1 protein’s dissociation from sensor. The measured data were fitted using a 1:1 model, and the association rate (Kon) and the dissociation rate (Koff) were calculated. The equilibrium dissociation constant (kD) was calculated by the ratio Koff/Kon.
# T1 sequence (Q9NZQ7 19-238 limits assumed): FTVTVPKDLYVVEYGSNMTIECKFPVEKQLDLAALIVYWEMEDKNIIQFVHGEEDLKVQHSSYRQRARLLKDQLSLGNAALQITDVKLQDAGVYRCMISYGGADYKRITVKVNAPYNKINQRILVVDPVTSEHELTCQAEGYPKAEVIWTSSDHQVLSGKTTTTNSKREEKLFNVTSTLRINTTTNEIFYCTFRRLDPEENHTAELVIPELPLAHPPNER
Binder,Kd,koff,kon
B1,4.32 nM,0.00101 s⁻¹,234000 M⁻¹ s⁻¹
B2,3.68 nM,0.000826 s⁻¹,225000 M⁻¹ s⁻¹
B3,3.52 nM,0.000582 s⁻¹,165000 M⁻¹ s⁻¹
B4,5.94 nM,0.0006 s⁻¹,101000 M⁻¹ s⁻¹

# Biological target: T2, human PD-L1 (human, UniProt Q9NZQ7 19-238, limits assumed)
# T2 construct: also called hPD-L1
# Experiment: flow cytometry on BT20 cells (PD-L1 on the cell surface), PE-labelled secondary antibody, MFI
# Description: (§1) Glycosylation differences in cancer cell lines of different tissue origin may affect the binding affinity between PD-L1 antibody and PD-L1. In this study, five cell lines were selected, namely BT20(Breast), mb-231 (Breast), A375(Melanoma), HCC827(Lung), and RKO(Colon). Cells were re-suspended with FACS buffer (1%BSA in PBS), and 50 µl cell suspension per well was added to the 96-well U-bottom plate (Corning, catalog#3795). The purified antibody to be tested was diluted in gradient, then 50 µl was added to each well and incubated at 4° C. for 1 hour. After washing by FACS buffer for three times, the cells were incubated with PE-labeled fluorescent secondary antibody and incubated at 4° C. for half an hour. Cells were washed three times with FACS buffer and resuspended to 200 uL/ well. The fluorescence signal was detected using Canto II flow cytometry (BD).
# T2 sequence (Q9NZQ7 19-238 limits assumed): as above
row,Binder,EC50 (read off the curve)
1,B1,~0.02 µg/mL
2,B2,~0.01 µg/mL
3,B3,~0.007 µg/mL

# Biological target: T2, human PD-L1
# Experiment: flow cytometry on RKO cells (PD-L1 on the cell surface), PE-labelled secondary antibody, MFI
# Description: as §1
row,Binder,EC50 (read off the curve)
1,B1,~0.02 µg/mL
2,B2,~0.02 µg/mL
3,B3,~0.03 µg/mL
4,B4,~0.04 µg/mL

# Biological target: T2, human PD-L1
# Experiment: Octet-96 BLI; antigen not named, taken as human PD-L1
row,Binder,Kd
1,B5,1.13 nM
2,B6,1.18 nM
3,B7,0.942 nM
4,B8,1.29 nM
5,B9,0.4 nM
6,B10,0.619 nM
7,B11,0.242 nM
8,B12,0.201 nM
9,B13,0.177 nM
10,B14,0.16 nM
11,B15,0.329 nM
12,B16,1.17 nM
13,B17,0.255 nM
14,B18,3.68 nM
15,B19,11.8 nM
16,B20,12.4 nM
17,B21,10.3 nM
18,B22,1.27 nM
19,B23,1.67 nM
20,B24,11.1 nM
21,B25,9.09 nM

# Biological target: T2, human PD-L1
# Experiment: flow cytometry on MDA-MB-231 cells (PD-L1 on the cell surface), PE-labelled secondary antibody, MFI
# Description: as §1
row,Binder,EC50 (read off the curve)
1,B1,~0.03 µg/mL
2,B2,~0.03 µg/mL
3,B3,~0.03 µg/mL
4,B4,~0.06 µg/mL

# Biological target: T2, human PD-L1
# Experiment: flow cytometry on HCC827 cells (PD-L1 on the cell surface), PE-labelled secondary antibody, MFI
# Description: as §1
row,Binder,EC50 (read off the curve)
1,B1,~0.03 µg/mL
2,B2,~0.02 µg/mL
3,B3,~0.02 µg/mL
4,B4,~0.05 µg/mL
